{"source": "patent US8361484B2", "about": "“Polymer systems for lung volume reduction therapy” (Aeris Therapeutics, Inc., priority 2006, dated 2013)", "experiment": "PVA hydrogel durability in phosphate buffered saline pH 7.4, integrity checked by periodic inversion", "assay_type": "physicochemical", "settings": "additive at 10%; 4% borate; PBS pH 7.4, room temperature", "method": "The effect of the PVA (99% hydrolysis rate; average molecular weight 100K) concentration on gel durability was evaluated by first aliquotting 0.2 mL of a 4% borate solution into bottom of 14 mL tube. Then 1.8 mL of various PVA solutions of 2-5% concentrations were added by vigorous injection through a 3 mL syringe with an 18G needle. Three tubes were prepared for of each concentration and cured at room temperature for one hour to insure complete polymerization. 8 mL of phosphate buffered saline, pH 7.4, were added to each tube, covered and incubated at room temperature. The integrity of the gels was checked by periodic inversion.\nThe effect of additives on the durability of the PVA gel (99% hydrolysis rate; average molecular weight 100K) was evaluated by first aliquotting 0.2 mL of a 4% borate solution into bottom of 14 mL tube. Then 1.8 mL of PVA (5%) and additive containing solutions of 2-5% concentrations were added by vigorous injection through a 3 mL syringe with an 18G needle. Three tubes were prepared for of each concentration and cured at room temperature for one hour to insure complete polymerization. 8 mL of phosphate buffered saline, pH 7.4, were added to each tube, covered and incubated at room temperature. The integrity of the gels was checked by periodic inversion. […]", "data": [{"substance": "albumin", "values": [{"measurement": "Effect of additive on durability of 5% PVA hydrogels", "value": "increase the durability"}]}]}
